The text below walks through data of US12697404B2, “PSMA-targeting conjugate and uses thereof” (priority 2021, dated 2026).

Read-outs that look alike come from different tables or passages of the source.

In series [1] the test system is subcutaneous LNCaP tumors. The experiment in a line: ^212Pb-PSMA-OM-00214 biodistribution study in xenograft-bearing mice. Particulars: labeled with 212Pb, one 10 μCi dose i.v., 4 hours post-injection. Type of series: in vivo, R2G2 mice. Here is the method: (§1) A study was carried out in order to assess the biodistribution of PSMA-OM-00214, labeled with ^212Pb at a specific activity of 10 μCi per 10 ng of conjugate, in R2G2™ mice bearing a human prostate cancer cell tumor.
(§2) 15 male R2G2™ mice, 7-8 weeks old and weighting 33.9±3.5 g at study initiation, were injected subcutaneously, into the right flank, with 10^6 LNCaP cells in 100 μL of RPMI-1640 medium/Matrigel™ (v/v: 1/1). The tumors were let grow until they reached 200-300 mm^3 (as determined by the formula: volume=0.5×length×width^2).
(§3) Then animals were randomized based on tumor size and a group of 6 mice received intravenously (into a tail vein) one 10 μCi dose of ^212Pb-PSMA-OM-00214 (10 μCi per 10 ng of conjugate, 100 μL injection volume).
(§4) The mice were sacrificed at 4 hour post-dose injection.
(§5) Blood, bladder, reproductive organs, small intestine, colon with caecum, spleen, pancreas, kidneys, stomach, liver, lung, heart, brain, femoral bone, abdominal fat, skeletal muscle, tail (as injection site) and LNCaP tumor were collected from each sacrificed mouse, weighted and transferred to individual tubes for automatic gamma counter.
(§6) The tubes were counted for two min. The background was automatically subtracted from the counts. A standard consisting of 5 μL of the solution injected to the mice was also counted for each group of mice and used for decay correction.
(§7) The percent injected dose per gram, denoted % ID/g, was calculated for each organ collected (mean±standard deviation).

Assay in series [2]: as above
It counts as in vivo, R2G2 mice. Particulars: male, R2G2, mouse, iv, 10 uCi, total radioactivity, labeled with 212Pb, 10 μCi per 10 ng of conjugate, one 10 μCi dose i.v. Here is the method: as §1, §2, §3, §4, §5, §6, §7

Series [3] relates to subcutaneous LNCaP tumors. The experiment in a line: Comparative biodistribution study in xenograft-bearing mice. It counts as in vivo, athymic nude mice. Particulars: both labeled with 212Pb, one 10 μCi dose i.v., at 1 hour, 4 hours and 24 hours post-dose injection. How it is done: A study was carried out in order to compare the biodistribution of PSMA-OM-00214, labeled with ^212Pb at a specific activity of 10 μCi per 10 ng of conjugate, in athymic nude mice bearing a human prostate cancer cell tumor with that of a conjugate, denoted hereinafter “DOTAM-PSMA-617”, also labeled with ^212Pb and differing from PSMA-OM-00214 in that it comprises only one PSMA ligand instead of two.
Three batches of male athymic nude mice, 7-8 weeks old and weighting 27.90±2.6 g for the first batch, 27.90±2.5 g for the second batch and 29.50±2.5 g for the third batch, at study initiation, were injected subcutaneously, into the right flank, with 10^6 LNCaP cells in 100 μL of RPMI-1640 medium/Matrigel™ (v/v: 1/1). The tumors were let grow until they reached 200-300 mm^3.
The mice were divided into a plurality of groups each comprising 3 to 14 mice.
In any case, each mouse received intravenously either one 10 μCi dose of ^212Pb-PSMA-OM-00214 (10 μCi per 10 ng of conjugate, 100 μL injection volume) or one 10 μCi dose of ^212Pb-DOTAM-PSMA-617 (10 μCi per 10 ng of conjugate, 100 μL injection volume). […]
The tubes were counted for two min. […] Standards consisting of 5 μL of the solutions injected to the mice were also counted and used for decay correction.
as §7

Turning to `NC(=O)CN1CCN(CC(=O)NCC2CCC(C(=O)NC(Cc3ccc4ccccc4c3)C(=O)NCCCCC(NC(=O)NC(CCC(=O)O)C(=O)O)C(=O)O)CC2)CCN(CC(N)=O)CCN(CC(=O)NCC2CCC(C(=O)NC(Cc3ccc4ccccc4c3)C(=O)NCCCCC(NC(=O)NC(CCC(=O)O)C(=O)O)C(=O)O)CC2)CC1` (centres unmarked) [PSMA-OM-00214], in series [1], the tumor/kidney ratio entry was “satisfactory” and the “uptake in all major non-tumor tissues” value is given as “very low uptake”. In series [2] (LNCaP tumor, 4 hours post-injection, average, read-out: tumor uptake), the tissue uptake at 4 h was over 20 %ID/g. Besides, the tissue uptake at 4 h in series [2] (kidneys, 4 hours, read-out: kidney uptake) was about 10 %ID/g. For the same compound, the “tumor uptake and retention compared with DOTAM-PSMA-617” value in series [3] is “significantly higher”.
